# Assay results reported in patent US20260132182A1 (published 2026).
# Starred links: 1 amine or outer side, 2 acyl side, 3 side chain; linkers in the order of their positions; H or OH if unused. Non-standard residues stand in square brackets, D forms with d. Groups on a side chain read outwards from the residue. *: point of attachment. C20 diacid = O=C(O)CCCCCCCCCCCCCCCCCCC(=O)*; C18 diacid = O=C(O)CCCCCCCCCCCCCCCCC(=O)*; C16 diacid = O=C(O)CCCCCCCCCCCCCCC(=O)*; γGlu = O=C(O)[C@H](CCC(=O)[*:2])N[*:1]; C14 diacid = O=C(O)CCCCCCCCCCCCC(=O)*; εLys = N[C@@H](CCCCN[*:1])C(=O)[*:2]; Trx = NC[C@H]1CC[C@H](C(=O)O)CC1; AEEA = NCCOCCOCC(=O)O; Aib = CC(C)(N)C(=O)O; Ahx = NCCCCCC(=O)O
# T1: human amylin-3 (a) receptor (human, UniProt P30988 25-474; O60896 24-148)
# T1 sequence (looked up) 1: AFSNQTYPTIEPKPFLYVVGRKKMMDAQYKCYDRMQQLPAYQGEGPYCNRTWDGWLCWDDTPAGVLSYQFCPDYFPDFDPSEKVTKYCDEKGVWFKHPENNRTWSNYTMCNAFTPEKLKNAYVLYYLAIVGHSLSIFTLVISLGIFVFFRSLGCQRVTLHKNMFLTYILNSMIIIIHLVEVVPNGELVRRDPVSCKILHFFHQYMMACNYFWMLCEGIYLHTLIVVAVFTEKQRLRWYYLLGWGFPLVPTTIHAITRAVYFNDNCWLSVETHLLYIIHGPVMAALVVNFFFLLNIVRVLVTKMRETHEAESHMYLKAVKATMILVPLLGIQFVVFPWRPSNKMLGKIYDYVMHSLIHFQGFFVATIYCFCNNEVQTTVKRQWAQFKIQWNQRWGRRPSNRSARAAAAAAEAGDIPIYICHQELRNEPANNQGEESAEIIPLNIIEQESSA
# T1 sequence (looked up) 2: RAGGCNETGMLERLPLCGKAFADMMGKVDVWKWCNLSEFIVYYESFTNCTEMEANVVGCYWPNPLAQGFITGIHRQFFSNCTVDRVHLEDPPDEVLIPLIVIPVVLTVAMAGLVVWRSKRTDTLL
# B1: Compound 0640 (peptide)
# peptide: H[Aib]EGTFTSDVSK([AEEA-AEEA-γGlu-C18 diacid])YLEEQAAREFIAWLVRGRGGGGGEASELSTAALGRLSAELHELATLPRTETGSGSP-NH2
# B2: Compound 0056 (peptide)
# peptide: H[Aib]EGTFTSDVSSYLEGQAAK([AEEA-AEEA-γGlu-C18 diacid])EFIAWLVRGRGK([AEEA-AEEA-γGlu-C18 diacid])QEPGQEPEASELSTAALGRLSAELHELATLPRTETGSGSP-NH2
# B3: Compound 0633 (peptide)
# peptide: H[Aib]EGTFTSDVSSYLEEQAARK([γGlu-γGlu-γGlu-γGlu-C20 diacid])FIAWLVRGRGGGGGEASELSTAALGRLSAELHELATLPRTETGSGSP-NH2
# B4: Compound 0634 (peptide)
# peptide: H[Aib]EGTFTSDVSK([γGlu-γGlu-γGlu-γGlu-C16 diacid])YLEEQAARK([γGlu-γGlu-γGlu-γGlu-C16 diacid])FIAWLVRGRGEASELSTAALGRLSAELHELATLPRTETGSGSP-NH2
# B5: Compound 0632 (peptide)
# peptide: H[Aib]EGTFTSDVSK([γGlu-γGlu-γGlu-γGlu-C20 diacid])YLEEQAAREFIEWLVRGAAEASELSTAALGRLSAELHELATLPRTETGSGSP-NH2
# B6: Compound 0565 (peptide)
# peptide: H[Aib]EGTFTSDVSK([AEEA-AEEA-γGlu-C20 diacid])YLEEQAAREFIAWLVRGRGGGGGEASELSTAALGRLSAELHELATLPRTETGSGSP-NH2
# B7: Compound 0071 (peptide)
# peptide: H[Aib]EGTFTSDVSSYLEGQAAK([AEEA-AEEA-γGlu-C18 diacid])EFIAWLVRGRGGQEPGQEPK([AEEA-AEEA-γGlu-C18 diacid])EASELSTAALGRLSAELHELATLPRTETGSGSP-NH2
# B8: Compound 0575 (peptide)
# peptide: H[Aib]EGTFTSDVSK([AEEA-AEEA-γGlu-C16 diacid])YLEEQAARK([AEEA-AEEA-γGlu-C16 diacid])FIAWLVRGRQEGGGGGASELSTAALGRLSAELHELATLPRTETGSGSP-NH2
# B9: Compound 0529 (peptide)
# peptide: H[Aib]EGTFTSDVSSYLEGQAAREFIAWLVRGRGQEPK([AEEA-AEEA-γGlu-C20 diacid])GQAPEASELSTAALGRLSAELHELATLPRTETGSGSP-NH2
# B10: Compound 0630 (peptide)
# peptide: H[Aib]EGTFTSDVSK([Ahx-γGlu-γGlu-C16 diacid])YLEEQAARK([Ahx-γGlu-γGlu-C16 diacid])FIEWLVRGAAEASELSTAALGRLSAELHELATLPRTETGSGSP-NH2
# B11: Compound 0009 (peptide)
# peptide: H[Aib]EGTFTSDVSSYLEGQAAREFIAWLVRGK([AEEA-AEEA-γGlu-C18 diacid])GEGEGEEASELSTAALGRLSAELHELATLPRTETGSGSP-NH2
# B12: Compound 0638 (peptide)
# peptide: H[Aib]EGTFTSDVSSYLEEQAAREFIAWLVRGRK([AEEA-AEEA-γGlu-C20 diacid])GGGGSGGGEASELSTAALGRLSAELHELATLPRTETGSGSP-NH2
# B13: Compound 0629 (peptide)
# peptide: H[Aib]EGTFTSDVSK([AEEA-AEEA-γGlu-C16 diacid])YLEEQAARKFIEWLVRGAAEASELSTAALGRLSAELHELATLPRTETGSGSP-NH2
# modifications: not fully specified (residue 21)
# B14: Compound 0561 (peptide)
# peptide: H[Aib]EGTFTSDVSSYLEEQAARK([AEEA-AEEA-γGlu-Trx-C20 diacid])FIAWLVRGRGGGGGEASELSTAALGRLSAELHELATLPRTETGSGSP-NH2
# B15: Compound 0552 (peptide)
# peptide: H[Aib]EGTFTSDVSSYLEEQAAREFIAWLVRGRK([εLys-AEEA-AEEA-γGlu-C20 diacid])GGGGEASELSTAALGRLSAELHELATLPRTETGSGSP-NH2
# B16: Compound 0635 (peptide)
# peptide: H[Aib]EGTFTSDVSK([AEEA-AEEA-γGlu-C14 diacid])YLEEQAARKFIAWLVRGRK([AEEA-AEEA-γGlu-C14 diacid])GGEASELSTAALGRLSAELHELATLPRTETGSGSP-NH2
# modifications: not fully specified (residue 21)
# B17: Compound 0576 (peptide)
# peptide: H[Aib]EGTFTSDVSK([AEEA-AEEA-γGlu-C16 diacid])YLEEQAARKFIEWLVRGRGEGGGGGASELSTAALGRLSAELHELATLPRTETGSGSP-NH2
# modifications: not fully specified (residue 21)
# B18: Compound 0581 (peptide)
# peptide: H[Aib]EGTFTSDVSSYLEEQAARK([AEEA-AEEA-γGlu-C20 diacid])FIEWLVRGASELSTAALGRLSAELHELATLPRTETGSGSP-NH2
# B19: Compound 0639 (peptide)
# peptide: H[Aib]EGTFTSDVSSYLEEQAARK([AEEA-AEEA-γGlu-C18 diacid])FIAWLVRGRGGGGGEASELSTAALGRLSAELHELATLPRTETGSGSP-NH2
# B20: Compound 0577 (peptide)
# peptide: H[Aib]EGTFTSDVSK([AEEA-AEEA-γGlu-C16 diacid])YLEEQAARKFIEWLVRGRGEASELSTAALGRLSAELHELATLPRTETGSGSP-NH2
# modifications: not fully specified (residue 21)
# B21: Compound 0578 (peptide)
# peptide: H[Aib]EGTFTSDVSK([AEEA-AEEA-γGlu-C16 diacid])YLEEQAARKFIAWLVRGRQEASELSTAALGRLSAELHELATLPRTETGSGSP-NH2
# modifications: not fully specified (residue 21)
# B22: Compound 0637 (peptide)
# peptide: H[Aib]EGTFTSDVSSYLEEQAAREFIAWLVRGRK([AEEA-AEEA-γGlu-C18 diacid])GGGGSGGGEASELSTAALGRLSAELHELATLPRTETGSGSP-NH2
# B23: Compound 0564 (peptide)
# peptide: H[Aib]EGTFTSDVSK([AEEA-Lys])YLEEQAAREFIAWLVRGRGGGGGEASELSTAALGRLSAELHELATLPRTETGSGSP-NH2
# modifications: also: Lys on Ado carries two C16 diacid-gGlu-Ado-Ado groups, on its alpha and epsilon amines
# B24: Compound 0562 (peptide)
# peptide: H[Aib]EGTFTSDVSSYLEEQAARK([AEEA-AEEA-γGlu-C20 diacid])FIAWLVRGRGGGGGEASELSTAALGRLSAELHELATLPRTETGSGSP-NH2
# B25: Compound 0057 (peptide)
# peptide: H[Aib]EGTFTSDVSSYLEGQAAK([AEEA-AEEA-γGlu-C18 diacid])EFIAWLVRGRGGQEK([AEEA-AEEA-γGlu-C18 diacid])GQEPEASELSTAALGRLSAELHELATLPRTETGSGSP-NH2
# B26: Compound 0539 (peptide)
# peptide: H[Aib]EGTFTSDVSSYLEGQAAREFIAWLVRGRGQEPK([AEEA-AEEA-γGlu-Trx-C20 diacid])GQAPEASELSTAALGRLSAELHELATLPRTETGSGSP-NH2
# B27: Compound 0580 (peptide)
# peptide: H[Aib]EGTFTSDVSSYLEEQAARK([AEEA-AEEA-γGlu-C20 diacid])FIAWLVRGGASELSTAALGRLSAELHELATLPRTETGSGSP-NH2
# How the values were obtained:
# [1] = target: T1, human amylin-3 (a) receptor; assay: cell-based or functional assay
# human GLP-1 receptor = human GLP-1 receptor (human, UniProt P43220 24-463); assay: cell-based or functional assay
Binder,Human AmyR3 potency [EC50 (pM)] [1],Human GLP-1R potency [EC50 (pM)] (human GLP-1 receptor)
B1,6 pM,2.3 pM
B2,120 pM,41.4 pM
B3,5.3 pM,28.2 pM
B4,59.4 pM,14.7 pM
B5,148 pM,18.8 pM
B6,6.2 pM,6.4 pM
B7,159 pM,69.4 pM
B8,8.3 pM,5.6 pM
B9,14.1 pM,6.4 pM
B10,110 pM,7.1 pM
B11,49.5 pM,7.9 pM
B12,6.9 pM,4.6 pM
B13,97.5 pM,7.9 pM
B14,10.7 pM,17.5 pM
B15,6.9 pM,4.7 pM
B16,78.9 pM,7.3 pM
B17,10.1 pM,2.9 pM
B18,26.4 pM,17 pM
B19,4.6 pM,1.5 pM
B20,19.1 pM,5.6 pM
B21,26.9 pM,2.5 pM
B22,14.1 pM,1.9 pM
B23,14.5 pM,24.5 pM
B24,4.1 pM,19.3 pM
B25,165 pM,59 pM
B26,12.1 pM,5 pM
B27,9.3 pM,7.4 pM
